Measurements: doi:10.1101/2025.03.06.641855

Key:
[1] = target: OppA-ev2 (evolved OppA variant with seven mutations) (E. coli (K12)) (UniProt P23843); experiment: MST
[2] = target: wt-OppA, periplasmic binding protein of the oligopeptide permease (Opp) transporter (E. coli (K12)) (UniProt P23843); experiment: MST

Kd [1] | Kd [2] | Substance
37 µM | 50 µM | G-SisoK, isopeptide-linked tripeptide
300 µM | 300 µM | SisoK, isopeptide-linked dipeptide
275 µM | 71 µM | linear GSK tripeptide
